Among the data in US8147844 (Genentech, dated 2012) are EC50 values, retold here.

In general, EC50 refers to the midpoint of the concentration-response curve. A low value points to an effect from little substance.

For assay [1], the target named is T1, mpl-IgG (chimeric molecule comprising the entire extracellular domain of human mpl, amino acids 1-491, and … (human, UniProt P40238 26-491)).
T1 construct: range 1-491; Expressed in 293 cells; no cleavage site is stated; Used immobilized on Ultralink or NHS-superose, captured on ELISA plates, or soluble; also called soluble mpl-IgG; soluble human mpl-IgG; not shown: Fc region of a human IgG1 molecule
T1 sequence (looked up): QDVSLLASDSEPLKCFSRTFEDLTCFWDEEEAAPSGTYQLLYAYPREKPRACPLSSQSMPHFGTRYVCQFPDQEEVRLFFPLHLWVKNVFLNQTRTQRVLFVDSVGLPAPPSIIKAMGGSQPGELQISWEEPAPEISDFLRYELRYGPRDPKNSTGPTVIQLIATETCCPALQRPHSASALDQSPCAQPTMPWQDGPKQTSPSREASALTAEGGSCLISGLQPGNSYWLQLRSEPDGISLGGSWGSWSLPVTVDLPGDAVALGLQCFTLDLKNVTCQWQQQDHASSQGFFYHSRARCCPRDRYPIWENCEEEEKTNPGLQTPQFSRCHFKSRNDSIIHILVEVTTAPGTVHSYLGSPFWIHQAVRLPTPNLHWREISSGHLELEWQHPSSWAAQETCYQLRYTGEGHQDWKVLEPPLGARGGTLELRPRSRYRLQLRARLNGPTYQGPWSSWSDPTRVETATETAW
The assay can be described thus: mpl receptor-based ELISA: mpl-IgG captured on an anti-human IgG (Fc) plate, bound TPO detected with biotinylated rabbit antibodies to TPO155.

The target of assay [2] is T1, mpl-IgG (chimeric molecule comprising …). Kind of assay: mpl receptor based ELISA (captured mpl-IgG).

Where “and” joins values, the source holds several entries; their conditions need not be identical. Identical values can stand only once.

B1: TPO (Met^-1 1-153), refolded, produced in E. coli (ligand)
chain: MSPAPPACDLRVLSKLLRDSHVLHSRLSQCPEVHPLPTPVLLPAVDFSLGEWKTQMEETKAQDILGAVTLLLEGVMAARGQLGPTCLSSLLGQLSGQVRLLLGALQSLLGTQLPPQGRTTAHKDPNAIFLSFQHLLRGKVRFLMLVGGSTLCVR
modifications: non-glycosylated; disulfides between cysteines 1-4 and 2-3
notes: Encoded by plasmid pMP210-1
In the case of B1, the EC50 in assay [1] is 0.0019 µg/mL and 0.12 nM.

B2: TPO (1-155) with authentic N-terminus, generated by thrombin cleavage of T-H8MLF (ligand)
chain: SPAPPACDLRVLSKLLRDSHVLHSRLSQCPEVHPLPTPVLLPAVDFSLGEWKTQMEETKAQDILGAVTLLLEGVMAARGQLGPTCLSSLLGQLSGQVRLLLGALQSLLGTQLPPQGRTTAHKDPNAIFLSFQHLLRGKVRFLMLVGGSTLCVRRA
notes: Only very minor (<5%) internal cleavage occurred; also called cleaved variant (3)
As to B2, in assay [2], the EC50 is 0.002 µg/mL to 0.004 µg/mL (2×) and 0.12 nM and 0.24 nM.
